# Test results from publication doi:10.1101/2025.08.01.668090, “Target Preference Maps: A machine learning model generalizing transferable drug-receptor interactions and guiding drug discovery” (bioRxiv, 2025).
# Where no end group is shown, it is not given here.
# Biological target: T1, N-terminal domain of T. brucei PEX14 (residues 19-84) (T. brucei, UniProt Q38CL4 19-84)
# T1 construct: also called N-His-PEX14; source: E. coli BL21(DE3), purified (Ni-NTA, Superdex 75); not shown: His tag, N-terminal, kept
# T1 sequence (looked up): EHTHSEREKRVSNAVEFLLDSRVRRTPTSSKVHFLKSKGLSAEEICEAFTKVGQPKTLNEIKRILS
# Assay: AlphaScreen or HTRF; 3 nM N-His-PEX14 with 10 nM biotinylated PEX5-derived peptide in PBS with 5 mg/mL BSA and 0.01 % (v/v) Tween-20; streptavidin donor beads and nickel chelate acceptor beads, 5 ug/mL each; competition with small-molecule inhibitors (600-0 uM), 5% DMSO
# Conditions: both partners purified
binder,measurement,value
"ALSENWAQEFLA (also: biotinylated (position not given here), PEX5-derived peptide with a WxxxF motif; Held on streptavidin donor beads by its biotin; The same peptide was used with PEX14 of all three species) [biotinylated PEX5-derived peptide (ALSENWAQEFLA)]",binding result,binds
